From paper PMC8452523

What was measured:
[1] = target: trimeric Spike K417N/E484K/N501Y (SARS-CoV-2) (UniProt P0DTC2); test: Luminex bead-based binding assay
[2] = target: trimeric Spike, full P.1 variant (SARS-CoV-2) (UniProt P0DTC2); test: Luminex bead-based binding assay

REGN10933 (antibody)
fold reduced binding affinity [1]: 60 fold | fold reduced binding affinity [2]: 195 fold
